Reference: publication PMC5613972, “A specific single-stranded DNA induces a distinct conformational change in the nucleoid-associated protein HU”

B1: oligo B (ssDNA)
DNA: GTCTCGCGGTATCATTGCAGCACTGGGGCC
B2: oligo A (ssDNA)
DNA: GGCCCCAGTGCTGCAATGATACCGCGAGAC
B3: oligo AB (dsDNA)
DNA 1: B2 DNA
DNA 2: B1 DNA
B4: oligo D (ssDNA)
DNA: TGTTTTGGGTGTTGCTTTAGTTGTCAT
B5: oligo CD (dsDNA)
DNA 1: ATGACAACTAAAGCAACACCCAAAACA
DNA 2: TGTTTTGGGTGTTGCTTTAGTTGTCAT
B6: oligo C (ssDNA)
DNA: ATGACAACTAAAGCAACACCCAAAACA

Molecular target: T1, TtHU (Thermus thermophilus, UniProt P19436 2-97)
T1 sequence: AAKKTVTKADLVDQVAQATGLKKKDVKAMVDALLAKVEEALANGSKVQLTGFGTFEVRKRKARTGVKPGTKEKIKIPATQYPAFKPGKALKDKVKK
Assay: EMSA; 1 uM DNA; EMSA: 20 mM Tris-HCl pH 7.5, 100 mM KCl, 37 °C, 1 h; CD: 20 mM phosphate pH 7.2, 100 mM KCl, 20 °C, 10 uM TtHU
Settings: protein: recombinant, tags: none stated (pET-11a), chain copies: 2

Binder	binding result (single strand)	binding result (duplex of complementary oligos)
B1	binds	–
B2	binds	–
B3	–	binds
B4	binds	–
B5	–	binds
B6	binds	–
